Experiment: label from the status in PepcDB records

| Sequence | protein production |
| --- | --- |
| MRPTITALVLTYNGERLLDRCLGSLAFCDRILVVDSFSTDATVAIAQAAGAEVLQRKWEGPGPQFAFALEKISDGWIVSLDQDEICSEELRDSILAATAADSGEAGYWIPRRSWYFDRFLKHSGWYPDHLLRLFRAGRMRVEVSGAHYSFHPDGETGTLTGDILHYPYESFRQHLDKVNDYAQKGADDLRAKGKRGGLCAGLCHGAGRFIRIYIIKRGFLDGRAGFINAIHGAFYAFLKHLRIEEGDWGRPFEHKLEHHHHHH | not failed |
| MRQARGRVHKNLGARVGSARPRSSLGHRTGIMKGQDMPGTVRLHRVLTTSPEKVYRAFVEADALAKWLPPNGFTCTVDHLEAKVGGTFKMSFRNFTTGGSHAFGGEYLELVPGERLRYTDRFDDPNLPGEIQVTVILKKVSVGTEIDITQAGIPDVIPVEACYLGWQESLRNLAKLVEPEINQ | failed |
| MRQIPQNHIHTRSTPFWNKETAPAGIFERHLDKGTRPGVYPRLSVMQGAVKYLGYADEHCSEPEEIMVINAGEFGVFPPEKWHNIEVMTDDTYFNIDFFVAPEVLMEGATSRKVIHAGRE | failed |
| MRQKETTATTRFSLLPGSITRFFLLLIIVLLVTMGVMVQSAVNAWLKDKSYQIVDITHAIQKRVDNWRYVTWQIYDNIAATTSPSSGEGLQETRLKQDVYYLEKPRRKTEALIFGSHDNSTLEMTQRMSTYLDTLWGAENVPWSMYYLNGQDNSLVLISTLPLKDLTSGFKESTVSDIVDSRRAEMLQQANALDERESFSNMRRLAWQNGHYFTLRTTFNQPGHLATVVAFDLPINDLIPPGMPLDSFRLEPDATATGNNDNEKEGTDSVSIHFNSTKIEISSALNSTDMRLVWQVPYGTLLLDTLQNILLPLLLNIGLLALALFGYTTFRHFSSRSTENVPSTAVNNELRILRAINEEIVSLLPLGLLVHDQESNRTVISNKIADHLLPHLNLQNITTMAEQHQGIIQATINNELYEIRMFRSQVAPRTQIFIIRDQDREVLVNKKLKQAQRLYEKNQQGRMIFMKNIGDALKEPAQSLAESAAKLNAPESKQLANQADVLVRLVDEIQLANMLADDSWKSETVLFSVQDLIDEVVPSVLPAIKRKGLQLLINNHLKAHDMRRGDRDALRRILLLLMQYAVTSTQLGKITLEVDQDESSEDRLTFRILDTGEGVSIHEMDNLHFPFINQTQNDRYGKADPLAFWLSDQLARKLGGHLNIKTRDGLGTRYSVHIKMLAADPEVEEEEERLLDDVCVMVDVTSAEIRNIVTRQLENWGATCITPDERLISQDYDIFLTDNPSNLTASGLLLSDDESGVREIGPGQLCVNFNMSNAMQEAVLQLIEVQLAQEEVTESPLGGDENAQLHASGYYALFVDTVPDDVKRLYTEAATSDFAALAQTAHRLKGVFAMLNLVPGKQLCETLEHLIREKDVPGIEKYISDIDSYVKSLL | failed |
| MRQPAIAAVDLGASKVTCFIMKADGVHRDNRTLTTAGVGYVQSRGVRGGAIVNLDEAAQAIAQAVERAETVAGVSVQGVSVCTAGGQLASHRVHTQVSLGARPIGDGDLSRAIASALAQVRIPGRKPIHLLPIAWSVDGQRGIRDPRAMFGRALGLELLVVSVNENIFHTLAHCVERAHLSFEGIVAAPFASALAALEEDEMDLGAVCIDMGGGSTSVAVFNNGALCHVDSLAVGGGHVTQDIARGLQTSVVGAERIKTLHGSAIASANEDREMIEAPPRGDDPGAGPVIAPRSLLKGIIQPRVEETLELLRERLKASGAPVEPGAGIVLTGGASQLAGVREVAVRVFDRPVRLGRPRRVPHLADAASGPAFCAAAGVLHRTAFGPREAVSSKALAGGVARKRPIDPNASPMAKAAAWLRDNL | failed |
| MRQRTIVCPLIQNDGCYLLCKMADNRGVFPGQWALSGGGVEPGERIEEALRREIREELGEQLILSDITPWTFRDDIRIKTYADGRQEEIYMIYLIFDCVSANRDICINDEFQDYAWVAPAALALYDLNVATRHTLALKGLL | not failed |
| MRQWIAVFALVGSVAAQAGVADQAAAVSALKEGKLAMDVRSQTDYEAGTVLNAVRVDERRLVNQMKQVLSDRNAVFVIFSSTDSKADKAQEKLRAAGYFSVINGGNYEELHNALYDITDDPAE | failed |
| MRREALKNAVLKIMTEKMELKNVTHLEETMRLNQDLYIDSVMMLQLIVYIEMDVKLCVPEDEVDPKAFLTVGSLLDFMEELQPLQDVNVNN | failed |
| MRRFALTVALPKGRMFREAYEVLKRAGLDLPEVEGERTLLHGKEGGVALLELRNKDVPIYVDLGIAEIGVVGKDVLLDSGRDLFEPVDLGFGACRLSLIRRPGDTGPIRRVATKYPNFTARLLKERGWAADVVELSGNIELAAVTGLADAVVDVVQTGATLRAAGLVEVEVLAHSTARLVVNRQALKLKRAVLKPLIQRLRELSGS | not failed |
| MRRICKVLMVIISIILGSGAPLNMAIPPLLALAAPDTSSSSTMSSSAISKVTDTNVMAVSADVTSTTDTSDTSSSDSTSATSTTTGNDTTETADTAVESGTVGTVAWTIDDAGVLTLSGGSFADLTGKRSPWYDYASSITNIKITDEITVTTASNYGYLFASLANVATVTGLNKLSMSGVTSTQSIFYRDSKLTSVDFGQTDFSTVTTMESMFEGCSVLTKVNTTNWNVSHVKSFKRTFYMCGKLTMLDVSNWDVTQVTNLDSTFSGCSSLPELDVSRWNTANVTTLASTFYSCSSVKIINASGWDTARVTDMTATFMNCTLATELNVSGWDTAKVTSMSRMFFYCENVIQLDVSGWITSQVTSLGSMFQNCSKVVTLDVGTWDTSKVTDMSFLFGGCSSLTTLNLEKWDTGSVTTLYSTFYNCSGLTSLLVDTWDTSKVTNCFWTFGGCSSLTTLNLRSWDLQSATASYGNFFNGSKKLQHLTLGPNFTFHNDKTMYLPEPSKQLPYNGTWQRNNDDPTYTSAELMTNYDGATMAGTYNWVKTSGTVLVKYVDGDGVEIADEETSSGTSGDAYQTTAKTIDGYTLHATPTNATGTYDASTITVTYVYDGNLFFNSSPTMLDFGSHTISGTTETYAPTLDKTLAVQNNGQISSTWNLTAELDSSGFVGADTGKMLLATLYYQTDDGKMTLSPGVAVQVYSQTTTDHKSVDISEHWSSNLGLLLEVPNGAAMADTYQGTISWRLNNTVANN | failed |
| MRRKNLFWDDVYKGTPPWDLDHPQPAFEALIKNGEIKPGRALDIGCGRGENAIILAMNGCDVIGIDLAENAISDAKAKATERHVKVKFVVEDALQMNRLFEEGEFDVVIDSGLFHVMMDEQRRVFAQQVHRVLREGGKYFMLCFSDKEPGEYELPRRLSKAEIESTFSPVFDITYIKEAVFDSLLSPSRRKAYLLSATRSLEHHHHHH | failed |
| MRRLLITILIFLLSNAGCCAPVFEIIPLGVYGGLKDGNLSAYLIKAIESKNYTALDGGTLVRGLEVAVDRQSLPSKKVDDLLQKHIPAYLISHAHLDHVMGLVMAQPELREKQTIMAREETMQALQDNIFNWSVWGNFGDSGAIPHLNFQHYQTLPLLQWLAIPDTDLHVKVFPLSHSGMASSAFLIRYKTEYALYFGDTGADRIEKSTNMENIWKEIAPLIRNKQLHAIMLECSFLNSQPDDKLFGHLKPNLFMSELRHLASIVDPFDSRNSLRGLPVVVTHIKPKLADFSNTNEDTEKQVINELSQENDIGVELIKPEQGITLSL | failed |
| MRRLPTFGWALLVSIWAGLVGGAVIREPSVDLVPLYAVICQLLGLIAAYGTMRERSHILESVHRPGRVGMFIIILFFVMVPLTTVFALVLGDASVAGVATQWVSYLVGLGIALYVAFAGGFDRAWEKYT | failed |
| MRRLRFSPRSSFARTLLLIVTLLFASLVTTYLVVLNFAILPSLQQFNKVLAYEVRMLMTDKLQLEDGTQLVVPPAFRREIYRELGISLYSNEAAEEAGLRWAQHYEFLSHQMAQQLGGPTEVRVEVNKSSPVVWLKTWLSPNIWVRVPLTEIHQGDFSPLFRYTLAIMLLAIGGAWLFIRIQNRPLVDLEHAALQVGKGIIPPPLREYGASEVRSVTRAFNHMAAGVKQLADDRTLLMAGVSHDLRTPLTRIRLATEMMSEQDGYLAESINKDIEECNAIIEQFIDYLRTGQEMPMEMADLNAVLGEVIAAESGYEREIETALYPGSIEVKMHPLSIKRAVANMVVNAARYGNGWIKVSSGTEPNRAWFQVEDDGPGIAPEQRKHLFQPFVRGDSARTISGTGLGLAIVQRIVDNHNGMLELGTSERGGLSIRAWLPVPVTRAQGTTKEG | failed |
